{"source": "paper PMC10235760", "about": "(Frontiers in Immunology, 2023)", "binders": {"B1": {"name": "antibody 10-40 with triple mutations (S32H heavy, R100bI heavy, Q53F light) (antibody, V domains shown)", "VH": "QLQLQESGPGLVKPSETLSLTCTVSGGSISSHNFYWGWIRQPPGKGLEWIASITYSGRTFYNPSLKSRVAISVDTSKNQFSLKLSSVTAADTAVYYCARTFPSYYDISGYHYLNYGMDVWGQGTTVTVSS", "VL": "NFMLTQPHSMSESPGKTVTISCTRSSGSIASNYVQWYQQRPGSSPTTVIYEDNFRPSGVPDRFSGSIDSSSNSASLTISGLKTEDEADYYCQSYDSSSWVFGGGTKLTVL", "notes": "also called combination of S32HH, R100bIH, and Q53FL"}}, "target": "T1, SARS-CoV-2 receptor binding domain, omicron subvariant BA5 (RBDBA5) (SARS-CoV-2, Omicron BA.5, strain)", "T1 construct": "also called Omicron BA5 RBD", "test": "SPR; Biacore T200, […]; 25°C, HBS-EP+ ([…], pH 7.4); 1:1 binding model; triplicate", "details": "both partners purified", "data": [{"binder": "B1", "values": [{"measurement": "fold improvement of binding affinity over antibody 10-40", "value": "> 5000", "unit": "fold"}]}]}
